{"source": "patent US5919635A", "about": "(ZymoGenetics, Inc., priority 1995, dated 1999)", "key": {"[1]": {"target": "T1, rat liver membranes (glucagon receptor) (Rattus norvegicus, UniProt P30082)", "T1 construct": "Two batches of liver membranes were each prepared from approximately 80 gm of liver; from tissue; host or cells: rat liver membranes", "T1 sequence (P30082 27-485)": "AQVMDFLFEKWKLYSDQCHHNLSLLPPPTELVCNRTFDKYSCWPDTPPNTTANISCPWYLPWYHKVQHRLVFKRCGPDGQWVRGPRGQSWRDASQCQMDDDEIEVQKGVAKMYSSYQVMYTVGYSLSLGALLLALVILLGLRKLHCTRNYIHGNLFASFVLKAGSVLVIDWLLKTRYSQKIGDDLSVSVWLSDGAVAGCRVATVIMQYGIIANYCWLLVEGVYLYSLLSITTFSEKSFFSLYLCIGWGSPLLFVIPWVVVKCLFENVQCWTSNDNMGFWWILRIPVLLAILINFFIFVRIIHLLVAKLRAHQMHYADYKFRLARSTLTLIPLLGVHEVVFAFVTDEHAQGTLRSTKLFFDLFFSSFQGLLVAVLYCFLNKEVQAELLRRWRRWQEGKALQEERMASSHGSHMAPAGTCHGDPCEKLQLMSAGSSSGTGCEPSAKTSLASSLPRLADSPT", "assay": "Competition binding / Scatchard analysis with ^125 I-glucagon on rat liver membranes", "settings": "30 minutes at 30° C., read-out: apparent Kd", "experimental": "Membranes from the pLJ4 BHK transfectants were compared with rat liver membrane preparations for the ability to bind ^125 I-glucagon. Membranes were prepared essentially described by Rodbell et al. (J. Biol Chem. 246:1861-1871, 1971, which is incorporated by reference herein in its entirety). Two batches of liver membranes were each prepared from approximately 80 gm of liver from 12 to 16 decapitated young female rats. The livers were removed quickly and placed into an iced beaker. The livers were separated into ten-gram portions. The portions were minced with scissors, and connective tissue was removed during the mincing procedure. The portions were separately homogenized in a Dounce homogenizer. […] The concentration of the solution was adjusted to 44.0%+/-0.1% using 69% sucrose or water as measured by a refractometer (Bausch & Lomb, Rochester, N.Y.). […]\nThe supernatant was carefully decanted and discarded. […] The absorbance was read in 1 cm cuvettes to determine protein concentration. Protein concentration was determined using the formula: [formula] […]\nTo each tube 100 μl of 2× binding buffer; 20 μl of ^125 I-glucagon (Amersham); 20 μl of 1 mM NaHCO3; 20 μl 10 mM HOAc, 0.5% BSA (Novo Nordisk N/A, Bagsvaerd, Denmark); and 40 μl of distilled water were added. […] The supernatants from each sample were aspirated, and the pellets were counted."}, "[2]": {"target": "rat glucagon receptor (pLJ4 transfectants) (Rattus norvegicus, UniProt P30082)", "sequence (P30082 27-485)": "as above", "assay": "Intracellular calcium response (fura-2 imaging) of pLJ4 BHK transfectants", "format": "cell-based", "settings": "100 nM final glucagon; resting value approximately 150 nM; from calibration experiments", "experimental": "E. Intracellular Calcium Concentration Determination\nPlasmid pLJ4 BHK transfectants seeded into 2 well coverglass chambers (NUNC) at 5×10^4 cells per chamber. The cells were grown for between one and three days under normal culture conditions in methotrexate selection medium. The medium was removed by aspiration, and the chambers were rinsed twice with 1 ml Imaging Buffer (Table 3). The cells were incubated for 30 minutes in the dark at room temperature with 0.5 ml of Fura-2 AM Solution (Table 3). After incubation, the Fura-2 AM Solution was removed, and the cells were rinsed with 1 ml Imaging Buffer three times. After the final rinse, 0.5 ml of buffer was left in each chamber. […]\nImaging was performed on a Nikon Diaphot inverted fluorescence microscope equipped with a mercury arc lamp and 10× and 40× Nikon Fluor dry objective lenses. Experiments were controlled and analysed using a Sun SPARC II workstation and Inovision (Research Triangle Park, N.C.) RATIOTOOL software. […] Emission images were directed by a dichroic mirror (380 nm cutoff) to a Dage-MTI 72 CCD camera equipped with a Genesis II image intensifier and digitally recorded by the software.\nIntracellular calcium concentration was monitored by calculating a ratio of emission intensities at each of the two excitation wavelenths (340/380) for each pixel of the digital microscopic image field (512×480 pixels). […]"}}, "data": [{"substance": "glucagon: 29 amino acid hormone produced by the alpha cells of pancreatic islets; human glucagon (Sigma)", "values": [{"measurement": "Kd", "setting": "[1]", "value": 49, "unit": "nM"}, {"measurement": "peak intracellular calcium concentration", "setting": "[2]", "value": "approximately 400 nM"}]}]}
